In US20240336656A1:
Each block holds one binder with its values, some of them ahead of it. Starred links: 1 amine or outer side, 2 acyl side, 3 side chain; linkers in the order of their positions; H or OH if unused. Positions of bridges follow the written chain, without caps; N, C: chain ends. Non-standard residues stand in square brackets, D forms with d. Groups on a side chain read outwards from the residue. Chains are numbered I, II in the order given. No end group written: not given here. *: point of attachment. TATA = O=C(CC[*:1])N1CN(C(=O)CC[*:2])CN(C(=O)CC[*:3])C1; PEG12 = NCCOCCOCCOCCOCCOCCOCCOCCOCCOCCOCCOCCOCCC(=O)O; Biotin = O=C1N[C@H]2[C@H](CS[C@H]2CCCCC(=O)*)N1; 1Nal = N[C@@H](Cc1cccc2ccccc12)C(=O)O; Hyp = O=C(O)[C@@H]1C[C@@H](O)CN1; hArg = N=C(N)NCCCC[C@H](N)C(=O)O; tBuAla = CC(C)(C)C[C@H](N)C(=O)O; Nle = CCCC[C@H](N)C(=O)O; Pent4ynoyl = C#CCCC(=O)*

What was measured:
[1] = molecular target: CD137 (TNFRSF9) on cells (human), Q07011; test: cell-based or functional assay
[2] = molecular target: T1, cyno CD137 extracellular domain (cyno), A9YYE7; test: SPR direct binding, BCY13582 captured with reversible biotin capture kit, soluble CD137 ECD; n = 1
T1 chain: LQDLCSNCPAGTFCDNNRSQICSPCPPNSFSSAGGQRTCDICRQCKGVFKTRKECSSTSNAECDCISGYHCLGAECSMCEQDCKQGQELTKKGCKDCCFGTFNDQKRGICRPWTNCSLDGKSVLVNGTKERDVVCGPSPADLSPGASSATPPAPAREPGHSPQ

[3] = molecular target: human CD137 extracellular domain (human), Q07011; test: SPR direct binding, BCY13582 captured with reversible biotin capture kit, soluble CD137 ECD; n = 3
Sequence of human CD137 extracellular domain (human), Q07011 (Q07011 24-186): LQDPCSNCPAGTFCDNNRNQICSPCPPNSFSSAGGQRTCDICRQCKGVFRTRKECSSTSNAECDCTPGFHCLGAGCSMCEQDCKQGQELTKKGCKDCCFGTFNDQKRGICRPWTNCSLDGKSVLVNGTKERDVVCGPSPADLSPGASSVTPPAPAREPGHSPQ

Sequence of CD137 (TNFRSF9) on cells (human), Q07011 (Q07011 24-255): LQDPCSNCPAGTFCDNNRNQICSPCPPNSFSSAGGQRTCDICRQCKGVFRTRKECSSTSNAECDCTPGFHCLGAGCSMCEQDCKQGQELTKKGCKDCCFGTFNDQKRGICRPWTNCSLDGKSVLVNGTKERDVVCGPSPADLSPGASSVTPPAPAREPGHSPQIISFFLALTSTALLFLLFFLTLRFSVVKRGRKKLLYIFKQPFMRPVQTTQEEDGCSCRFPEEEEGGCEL

- EC50 (nM) of fold induction over background, CD137 reporter assay, coculture with HT1376 (human) [1]: 0.58 nM
- EC50 (nM) of fold induction over background, CD137 reporter assay, coculture with MDA-MB-468 (human) [1]: 0.34 nM
- Kd [2]: 4.23 nM
- Kd [3]: 8.4 nM
B1: BCY13582 (peptide)
peptide 1: {N‑(acid-PEG3)‑N‑bis(PEG3-azide) linker}-CP[1Nal][dD]CM[hArg]DWSTP[Hyp]WC
peptide 2: Ac-C[tBuAla]PE[dK](Pent4ynoyl)PYCFADPY[Nle]CA
peptide 3: Ac-C[tBuAla]PE[dK](Pent4ynoyl)PYCFADPY[Nle]CK([PEG12-Biotin])
modifications: linker I:1-I:5-I:15, II:1-II:8-II:15, III:1-III:8-III:15 via TATA; not fully specified (bridges); also: chains 2 and 3 triazole-clicked via D-Lys(PYA) to the N-(acid-PEG3)-N-bis(PEG3-azide) linker, chain 1 joined to the linker at its N-terminus

- EC50 (nM) of fold induction over background, CD137 reporter assay, coculture with HT1376 (human) [1]: 1.7 nM
- EC50 (nM) of fold induction over background, CD137 reporter assay, coculture with MDA-MB-468 (human) [1]: 0.84 nM
B2: BCY13583 (peptide)
peptide 1: {N‑(acid-PEG3)‑N‑bis(PEG3-azide) linker}-CP[1Nal][dD]CM[hArg]DWSTP[Hyp]WC
peptide 2: Ac-C[tBuAla]PE[dK](Pent4ynoyl)PYCFADPY[Nle]CA
peptide 3: Ac-C[tBuAla]PE[dK](Pent4ynoyl)PYCFADPY[Nle]CK(Alexa Fluor 488)
modifications: linker I:1-I:5-I:15, II:1-II:8-II:15, III:1-III:8-III:15 via TATA; not fully specified (bridges); also: chains 2 and 3 triazole-clicked via D-Lys(PYA) to the N-(acid-PEG3)-N-bis(PEG3-azide) linker, chain 1 joined to the linker at its N-terminus
